Test results taken from PMC10644391 (2023).
Ends that are not written are not given here.

Target: T1, HEG1 cytoplasmic tail 7-mer peptide cytoplasmic tail 7-mer (Homo sapiens, UniProt Q9ULI3, also: Cy5-labelled)
T1 chain: SRRRDYF
Experiment: fluorescence polarization

Kd: 13 nM
B1: KRIT1 417-736 (protein)
chain: KPYEKVRIYRMDGSYRSVELKHGNNTTVQQIMEGMRLSQETQQYFTIWICSENLSLQLKPYHKPLQHVRDWPEILAELTNLDPQRETPQLFLRRDVRLPLEVEKQIEDPLAILILFDEARYNLLKGFYTAPDAKLITLASLLLQIVYGNYESKKHKQGFLNEENLKSIVPVTKLKSKAPHWTNRILHEYKNLSTSEGVSKEMHHLQRMFLQNCWEIPTYGAAFFTGQIFTKASPSNHKVIPVYVGVNIKGLHLLNMETKALLISLKYGCFMWQLGDTDTCFQIHSMENKMSFIVHTKQAGLVVKLLMKLNGQLMPTERNS
